{
  "source": "paper PMC5594479",
  "about": "“Identification and immobilization of a novel cold-adapted esterase, and its potential for bioremediation of pyrethroid-contaminated vegetables” (Microbial Cell Factories, 2017)",
  "substrate": "CCCC(=O)Oc1ccc([N+](=O)[O-])cc1",
  "experiment": "purified protein",
  "format": "biochemical, uncultured microorganism",
  "settings": "free (soluble) enzyme, potassium phosphate pH 6.5, 18 °C, substrate range printed as 1.0 to 10.0 mM, does not fit the printed Km unit",
  "data": [
    {"protein": "Est684 (uncultured microorganism) (protein, E. coli BL21 (DE3); Ni-NTA and Superdex 200; putative triad S103/D167/H203) MPSGENQFYVDKPSRGENYGAYVADELVEFTRKMFPLSYKKEDTFIAGLSMGGYGALINGLKYHETFSHIGAFSPGLMIDDIASRSELLSVTGWSMDFYGNSFGGIDTIKNSDKDYYYLIDQLLENKKEIPKIYLPIGTDDFLLESVRGFKSFVDKREVPLTYIEDDGGHEWDFWDKYVKNFLEWLPLEEKGNYLNSGNVAEHGFRDADAQKAQAALVAWFEETLKK", "values": [
      {"measurement": "Km", "result": 6.01, "unit": "mM"},
      {"measurement": "kcat", "result": "417.15 ± 1.51", "unit": "s⁻¹"}
    ]}
  ]
}
